Laboratory results as given in US5547932.

Biological target: transferrin receptor on NIH3T3 cells and on C2C12 and G8 myoblasts and myotubes (Mus musculus (Mouse)) (UniProt Q62351)

Substance: human transferrin-polylysine conjugate (from UniProt P02787) (ligand)
- luciferase activity: < 1 log
